Reference: the supplement of paper PMC9112550, “Optimization of the antimicrobial peptide Bac7 by deep mutational scanning” (BMC Biology, 2022)

The sequences below were run on Escherichia coli TOP10 (assay: shrunken log2 fold change of peptide-encoding DNA abundance (4.5 h post-induction vs induction); higher = less antimicrobial activity (less host growth inhibition)). Conditions: time post-induction: 4.5 h; library: site-saturation at positions 5, 18, 19, 20.
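Also: peptides expressed intracellularly from a pBAD plasmid library in pooled LB shake-flask culture, induced with 0.3% L-arabinose, DNA abundance read by NGS, three biological replicates, DESeq2 with apeglm shrinkage.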

| Sequence | shrunken log2 fold change |
| --- | --- |
| RRIRTRPPRLPRPRPRPLRKPRP | 0.258 |
| RRIRLRPPRLPRPRPRPVVGPRP | 0.103 |
| RRIRRRPPRLPRPRPRPWMCPRP | 0.214 |
| RRIRIRPPRLPRPRPRPLWHPRP | -0.105 |
| RRIRHRPPRLPRPRPRPCWAPRP | 0.00936 |
| RRIRARPPRLPRPRPRPDKQPRP | -0.0794 |
| RRIRNRPPRLPRPRPRPMYHPRP | -0.248 |
| RRIRCRPPRLPRPRPRPYIVPRP | -0.168 |
| RRIRMRPPRLPRPRPRPCCSPRP | 0.0205 |
| RRIRSRPPRLPRPRPRPEPLPRP | 0.0528 |
| RRIRPRPPRLPRPRPRPSVLPRP | 0.0488 |
| RRIRQRPPRLPRPRPRPDALPRP | -0.0392 |
| RRIRKRPPRLPRPRPRPWMLPRP | -0.266 |
| RRIRFRPPRLPRPRPRPVKGPRP | -0.178 |
| RRIRVRPPRLPRPRPRPAPYPRP | -0.00665 |
| RRIRMRPPRLPRPRPRPDNDPRP | 1.41 |
| RRIRVRPPRLPRPRPRPCGHPRP | 0.0386 |
| RRIRERPPRLPRPRPRPCTKPRP | -0.63 |
| RRIRYRPPRLPRPRPRPLCEPRP | -0.238 |
| RRIRERPPRLPRPRPRPVCTPRP | -0.147 |
| RRIRKRPPRLPRPRPRPQRHPRP | 1.73 |
| RRIRIRPPRLPRPRPRPPWYPRP | -0.394 |
| RRIRFRPPRLPRPRPRPKKFPRP | -0.128 |
| RRIRKRPPRLPRPRPRPLIQPRP | 0.112 |
| RRIRFRPPRLPRPRPRPWHAPRP | -0.162 |

| Sequence | shrunken log2 fold change |
| --- | --- |
| RRIRGRPPRLPRPRPRPTIFPRP | 0.127 |
| RRIRFRPPRLPRPRPRPWFAPRP | -0.582 |
| RRIRLRPPRLPRPRPRPRSHPRP | 0.195 |
| RRIRDRPPRLPRPRPRPTINPRP | 0.135 |
| RRIRYRPPRLPRPRPRPDNCPRP | -0.0299 |
| RRIRMRPPRLPRPRPRPQWMPRP | 0.109 |
| RRIRPRPPRLPRPRPRPKKTPRP | -0.107 |
| RRIRQRPPRLPRPRPRPIAQPRP | 0.0718 |
| RRIRQRPPRLPRPRPRPTVTPRP | -0.47 |
| RRIRQRPPRLPRPRPRPCKMPRP | 0.0276 |
| RRIRARPPRLPRPRPRPLKKPRP | 0.0777 |
| RRIRRRPPRLPRPRPRPITMPRP | -0.0568 |
| RRIRFRPPRLPRPRPRPWGLPRP | -0.168 |
| RRIRDRPPRLPRPRPRPRNAPRP | -0.145 |
| RRIRRRPPRLPRPRPRPFMPPRP | -0.00307 |
| RRIRTRPPRLPRPRPRPMLRPRP | 0.0141 |
| RRIRCRPPRLPRPRPRPPVQPRP | 0.652 |
| RRIRYRPPRLPRPRPRPWALPRP | -0.355 |
| RRIRIRPPRLPRPRPRPHGQPRP | -0.0468 |
| RRIRHRPPRLPRPRPRPVVTPRP | -0.0256 |
| RRIRWRPPRLPRPRPRPQPGPRP | 0.221 |
| RRIRCRPPRLPRPRPRPCQCPRP | -0.208 |
| RRIRARPPRLPRPRPRPAMMPRP | 0.511 |
| RRIRRRPPRLPRPRPRPNLHPRP | -0.288 |
| RRIRGRPPRLPRPRPRPGCAPRP | 1.33 |

| Sequence | shrunken log2 fold change |
| --- | --- |
| RRIRSRPPRLPRPRPRPQQSPRP | -0.235 |
| RRIRLRPPRLPRPRPRPWHNPRP | -0.00136 |
| RRIRDRPPRLPRPRPRPEPQPRP | 0.0781 |
| RRIRLRPPRLPRPRPRPTYYPRP | -0.399 |
| RRIRTRPPRLPRPRPRPSYEPRP | -0.352 |
| RRIRNRPPRLPRPRPRPTAAPRP | 0.543 |
| RRIRIRPPRLPRPRPRPWPYPRP | -0.163 |
| RRIRVRPPRLPRPRPRPHPCPRP | 0.106 |
| RRIRERPPRLPRPRPRPSYNPRP | -0.924 |
| RRIRLRPPRLPRPRPRPGIEPRP | -0.00975 |
| RRIRPRPPRLPRPRPRPVNEPRP | -0.00503 |
| RRIRKRPPRLPRPRPRPGMPPRP | 0.625 |
| RRIRLRPPRLPRPRPRPLEIPRP | -0.0425 |
| RRIRSRPPRLPRPRPRPKVGPRP | 0.176 |
| RRIRSRPPRLPRPRPRPHENPRP | 0.0415 |
| RRIRCRPPRLPRPRPRPYFQPRP | -0.846 |
| RRIRVRPPRLPRPRPRPHEQPRP | -0.163 |
| RRIRMRPPRLPRPRPRPHQPPRP | 0.0274 |
| RRIRRRPPRLPRPRPRPENMPRP | 0.0592 |
| RRIRLRPPRLPRPRPRPAEAPRP | 0.0653 |
| RRIRTRPPRLPRPRPRPVKKPRP | 0.0316 |
| RRIRYRPPRLPRPRPRPLIPPRP | -0.671 |
| RRIRQRPPRLPRPRPRPNVDPRP | -0.0229 |
| RRIRDRPPRLPRPRPRPCSIPRP | -0.0309 |
| RRIRLRPPRLPRPRPRPHMSPRP | -0.325 |
